Assay [1] concerns the target SARS-CoV-2 S receptor-binding domain (RBD) (SARS-CoV-2 (isolate Wuhan-Hu-1), UniProt P0DTC2). Put plainly: SPR. A general note: SPR reads the build-up and loss of mass on a sensor chip optically.
Assay [2] has the same target. Put plainly: SPR. The source holds these as a separate data set.

The record followed here is paper PMC9461283 (Biosafety and Health, 2022).

For orientation: Kd means a measure of binding affinity in units of concentration. Low values mean tighter binding, high ones weaker binding.

B1: human ACE2 ectodomain (ectoACE2), N-terminal 367 aa (domain or fragment)
chain: QSTIEEQAKTFLDKFNHEAEDLFYQSSLASWNYNTNITEENVQNMNNAGDKWSAFLKEQSTLAQMYPLQEIQNLTVKLQLQALQQNGSSVLSEDKSKRLNTILNTMSTIYSTGKVCNPDNPQECLLLEPGLNEIMANSLDYNERLWAWESWRSEVGKQLRPLYEEYVVLKNEMARANHYEDYGDYWRGDYEVNGVDGYDYSRGQLIEDVEHTFEEIKPLYEHLHAYVRAKLMNAYPSYISPIGCLPAHLLGDMWGRFWTNLYSLTVPFGQKPNIDVTDAMVDQAWDAQRIFKEAEKFFVSVGLPNMTQGFWENSMLTDPGNVQKAVCHPTAWDLGKGDFRILMCTKVTMD
Molecule B1 yielded a Kd in assay [1] of 61.2 nM.

B2: African Green monkey (Chlorocebus sabaeus) ACE2 ectodomain (ectoACE2), N-terminal 367 aa (domain or fragment)
chain: QSTIEEQAKTFLDKFNPEAEDLFYQSSLASWNYNTNITEENVQNMNNAGEKWSAFLKEQSTLAQMYPLQAIQNLTVKLQLQALQQNGSSVLSEDKSKRLNTILNTMSTIYSTGKVCNPNNPQECLLLDPGLNEIMEKSLDYNERLWAWEGWRSEVGKQLRPLYEEYVVLKNEMARANHYKDYGDYWRGDYEVNGVDGYDYNRDQLIEDVERTFEEIKPLYEHLHAYVRAKLMNAYPSYISPTGCLPAHLLGDMWGRFWTNLYSLTVPFGQKPNIDVTDAMVNQAWNAQRIFKEAEKFFVSVGLPNMTQGFWENSMLTDPGNVQKVVCHPTAWDLGKGDFRIIMCTKVTMD
B2 gave a Kd in assay [2] of 67.6 nM.
